“And” between values parts separate entries of the source, which are not always exact repeats. Equal values may be shown once.
T1: Sla1-2, P32790
T1 sequence (P32790 60-140, looked up): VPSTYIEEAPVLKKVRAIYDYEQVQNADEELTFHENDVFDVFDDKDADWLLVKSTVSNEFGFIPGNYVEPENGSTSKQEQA

T2: Sla1-3, P32790
T2 sequence (P32790 344-424, looked up): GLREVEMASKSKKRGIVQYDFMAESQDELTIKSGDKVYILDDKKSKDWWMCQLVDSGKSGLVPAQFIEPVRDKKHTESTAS

T3: Cdc25, P04821
T3 sequence (P04821 50-136, looked up): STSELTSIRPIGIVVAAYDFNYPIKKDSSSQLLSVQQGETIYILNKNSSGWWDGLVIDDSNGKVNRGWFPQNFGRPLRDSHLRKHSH

T4: Lsb3, P43603
T4 sequence (P43603 385-451, looked up): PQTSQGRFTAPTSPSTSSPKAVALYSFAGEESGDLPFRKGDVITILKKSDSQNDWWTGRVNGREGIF

T5: Bud14, P27637
T5 sequence (P27637 247-328, looked up): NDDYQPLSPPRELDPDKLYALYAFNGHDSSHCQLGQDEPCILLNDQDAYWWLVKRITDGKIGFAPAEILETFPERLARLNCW

T6: Bbc1, P47068
T6 sequence (P47068 1-78, looked up): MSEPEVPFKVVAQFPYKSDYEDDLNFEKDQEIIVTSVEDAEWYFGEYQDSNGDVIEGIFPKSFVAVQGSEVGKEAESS

T7: Boi1, P38041
T7 sequence (P38041 1-86, looked up): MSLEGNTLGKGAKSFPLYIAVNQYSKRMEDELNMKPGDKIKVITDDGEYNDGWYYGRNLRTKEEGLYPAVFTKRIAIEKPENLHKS

T8: Abp1, P15891
T8 sequence (P15891 535-592, looked up): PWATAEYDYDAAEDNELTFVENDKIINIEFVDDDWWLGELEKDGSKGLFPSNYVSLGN

T9: Nbp2, Q12163
T9 sequence (Q12163 103-180, looked up): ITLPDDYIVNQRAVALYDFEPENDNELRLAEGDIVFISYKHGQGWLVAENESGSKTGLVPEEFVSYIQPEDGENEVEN

T10: Bzz1-1, P38822
T10 sequence (P38822 478-572, looked up): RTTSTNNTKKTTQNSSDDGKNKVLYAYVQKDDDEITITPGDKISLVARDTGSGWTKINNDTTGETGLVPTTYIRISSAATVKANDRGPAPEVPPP

T11: Lsb4, P32793
T11 sequence (P32793 402-468, looked up): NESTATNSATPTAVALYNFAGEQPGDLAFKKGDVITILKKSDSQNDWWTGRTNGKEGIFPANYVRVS

T12: Cyk3, Q07533
T12 sequence (Q07533 1-83, looked up): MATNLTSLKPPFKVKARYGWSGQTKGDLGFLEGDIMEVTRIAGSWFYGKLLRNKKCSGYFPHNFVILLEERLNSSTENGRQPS

T13: Pex13, P80667
T13 sequence (P80667 295-386, looked up): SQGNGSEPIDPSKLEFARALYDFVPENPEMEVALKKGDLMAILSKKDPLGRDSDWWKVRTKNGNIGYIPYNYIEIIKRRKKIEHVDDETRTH

T14: Pin3, Q06449
T14 sequence (Q06449 53-122, looked up): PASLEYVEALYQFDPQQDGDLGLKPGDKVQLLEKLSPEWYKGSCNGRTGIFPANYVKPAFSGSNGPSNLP

T15: Hse1, P38753
T15 sequence (P38753 208-285, looked up): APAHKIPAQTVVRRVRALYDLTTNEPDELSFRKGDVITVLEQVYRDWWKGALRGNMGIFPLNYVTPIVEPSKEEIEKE

T16: Fus1, P11710
T16 sequence (P11710 432-512, looked up): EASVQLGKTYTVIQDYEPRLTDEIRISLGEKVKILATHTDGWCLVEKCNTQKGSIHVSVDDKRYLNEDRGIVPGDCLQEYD

T17: Hof1, Q05080
T17 sequence (Q05080 590-669, looked up): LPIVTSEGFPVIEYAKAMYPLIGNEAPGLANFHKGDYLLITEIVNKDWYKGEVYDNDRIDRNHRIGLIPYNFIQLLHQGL

T18: Bzz1-2, P38822
T18 sequence (P38822 568-633, looked up): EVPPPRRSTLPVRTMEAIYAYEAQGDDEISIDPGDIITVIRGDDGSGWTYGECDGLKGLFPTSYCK

T19: Myo5, Q04439
T19 sequence (Q04439 1072-1160, looked up): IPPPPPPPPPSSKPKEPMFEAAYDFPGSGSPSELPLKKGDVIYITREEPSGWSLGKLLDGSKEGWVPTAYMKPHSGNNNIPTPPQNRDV

T20: Boi2, P39969
T20 sequence (P39969 32-116, looked up): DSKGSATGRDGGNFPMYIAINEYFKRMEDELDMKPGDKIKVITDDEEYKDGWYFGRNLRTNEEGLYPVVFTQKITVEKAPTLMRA

T21: Lsb1, P53281
T21 sequence (P53281 45-122, looked up): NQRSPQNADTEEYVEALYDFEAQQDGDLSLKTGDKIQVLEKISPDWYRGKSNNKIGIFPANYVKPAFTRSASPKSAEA


Assays:
Assay in all cases: SPOT array
Myo3, P36006 = conditions: median of control spots 468
Sho1, P40073 = conditions: median of control spots 1148
Chain of Sho1, P40073 (P40073 287-367): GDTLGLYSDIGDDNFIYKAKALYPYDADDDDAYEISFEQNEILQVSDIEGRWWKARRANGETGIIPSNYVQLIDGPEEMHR

Sla1-2, P32790 = target: T1, Sla1-2, P32790; conditions: median of control spots 712
Bem1-1, P29366 = conditions: median of control spots 4282
Chain of Bem1-1, P29366 (P29366 55-141): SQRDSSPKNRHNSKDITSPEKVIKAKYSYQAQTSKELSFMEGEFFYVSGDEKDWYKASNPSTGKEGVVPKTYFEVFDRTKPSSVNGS

Sla1-3, P32790 = target: T2, Sla1-3, P32790; conditions: median of control spots 5475
Cdc25, P04821 = target: T3, Cdc25, P04821; conditions: median of control spots 969
Lsb3, P43603 = target: T4, Lsb3, P43603; conditions: median of control spots 406
Bud14, P27637 = target: T5, Bud14, P27637; conditions: median of control spots 956
Bbc1, P47068 = target: T6, Bbc1, P47068; conditions: median of control spots 796
Boi1, P38041 = target: T7, Boi1, P38041; conditions: median of control spots 1162
Abp1, P15891 = target: T8, Abp1, P15891; conditions: median of control spots 935
Nbp2, Q12163 = target: T9, Nbp2, Q12163; conditions: median of control spots 357
GST = conditions: median of control spots 978
Bzz1-1, P38822 = target: T10, Bzz1-1, P38822; conditions: median of control spots 4446
Lsb4, P32793 = target: T11, Lsb4, P32793; conditions: median of control spots 397
Cyk3, Q07533 = target: T12, Cyk3, Q07533; conditions: median of control spots 1451
Pex13, P80667 = target: T13, Pex13, P80667; conditions: median of control spots 1341
Pin3, Q06449 = target: T14, Pin3, Q06449; conditions: median of control spots 2171
Hse1, P38753 = target: T15, Hse1, P38753; conditions: median of control spots 1727
Fus1, P11710 = target: T16, Fus1, P11710; conditions: median of control spots 1200
Bem1-2, P29366 = conditions: median of control spots 4347
Chain of Bem1-2, P29366 (P29366 139-227): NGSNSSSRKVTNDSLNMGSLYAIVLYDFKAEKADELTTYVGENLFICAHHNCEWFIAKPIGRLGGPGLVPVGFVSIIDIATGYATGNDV

Rvs167, P39743 = conditions: median of control spots 2707
Chain of Rvs167, P39743 (P39743 419-482): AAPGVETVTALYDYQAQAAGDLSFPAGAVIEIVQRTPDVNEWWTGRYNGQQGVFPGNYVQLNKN

Hof1, Q05080 = target: T17, Hof1, Q05080; conditions: median of control spots 4086
Bzz1-2, P38822 = target: T18, Bzz1-2, P38822; conditions: median of control spots 4538
Myo5, Q04439 = target: T19, Myo5, Q04439; conditions: median of control spots 471
Boi2, P39969 = target: T20, Boi2, P39969; conditions: median of control spots 1161
Lsb1, P53281 = target: T21, Lsb1, P53281; conditions: median of control spots 388

Row | Binder | SPOT intensity (Myo3, P36006) | SPOT intensity (Sho1, P40073) | SPOT intensity (Sla1-2, P32790) | SPOT intensity (Bem1-1, P29366) | SPOT intensity (Sla1-3, P32790) | SPOT intensity (Cdc25, P04821) | SPOT intensity (Lsb3, P43603) | SPOT intensity (Bud14, P27637) | SPOT intensity (Bbc1, P47068) | SPOT intensity (Boi1, P38041) | SPOT intensity (Abp1, P15891) | SPOT intensity (Nbp2, Q12163) | SPOT intensity (GST) | SPOT intensity (Bzz1-1, P38822) | SPOT intensity (Lsb4, P32793) | SPOT intensity (Cyk3, Q07533) | SPOT intensity (Pex13, P80667) | SPOT intensity (Pin3, Q06449) | SPOT intensity (Hse1, P38753) | SPOT intensity (Fus1, P11710) | other results
1 | VSKLRSPNTPRRLRK | 8 and 6 | 267 and 126 | 0 | 1 and 3 | 9 and 7 | 55 and 39 | 72 and 49 | 6 | 223 and 226 | 8 and 4 | 216 and 273 | 0 | 3 and 1 | 0 | 206 and 92 | 2 and 1 | 3 and 1 | 5 and 3 | – | – | –
2 | SSSSTPPTLPPRRIE | 99 | 0 | 1 | 0 | 1 | 2 | 1090 | 0 | 11 | 0 | 19 | 0 | 0 | 0 | 907 | 0 | 365 | 58 | 9 | 0 | SPOT intensity (Bem1-2, P29366): 0; SPOT intensity (Rvs167, P39743): 5650; SPOT intensity (Hof1, Q05080): 5; SPOT intensity (Bzz1-2, P38822): 0; SPOT intensity (Myo5, Q04439): 11; SPOT intensity (Boi2, P39969): 0; SPOT intensity (Lsb1, P53281): 1360
3 | LKPPIGRPPKFPKSP | 397 | 24 | 0 | 0 | 0 | 0 | 3 | 0 | 18 | 3 | 133 | 0 | 0 | 0 | 0 | 0 | 4 | 0 | 1 | 0 | SPOT intensity (Bem1-2, P29366): 0; SPOT intensity (Rvs167, P39743): 0; SPOT intensity (Hof1, Q05080): 0; SPOT intensity (Bzz1-2, P38822): 0; SPOT intensity (Myo5, Q04439): 117; SPOT intensity (Boi2, P39969): 0; SPOT intensity (Lsb1, P53281): 0
4 | GPPPPLPPPLFPSSS | 575 | 0 | 0 | 0 | 0 | 0 | 0 | 0 | 0 | 0 | 6 | 0 | 0 | 0 | 10 | 0 | 725 | 0 | 0 | 0 | SPOT intensity (Bem1-2, P29366): 0; SPOT intensity (Rvs167, P39743): 0; SPOT intensity (Hof1, Q05080): 1690; SPOT intensity (Bzz1-2, P38822): 0; SPOT intensity (Myo5, Q04439): 362; SPOT intensity (Boi2, P39969): 0; SPOT intensity (Lsb1, P53281): 64
